How the values were obtained:
[1] = target: Alcohol dehydrogenase/A1a (ADH/A1a) from an uncultured MSBL1 archaeon of the Atlantis II Deep Red Sea brine pool (uncultured MSBL1 (Mediterranean Sea Brine Lake 1) archaeon); assay: native gel or EMSA; Coomassie-stained native PAGE of purified ADH/A1a (Fig. S4); conditions not given
[2] = substrate: CCO; assay: purified protein; settings: standard oxidation conditions: 3 M KCl, 50 mM glycine/NaOH pH 10.0, 60 °C, 10 mM NAD(P)+, 0.4 mM zinc sulfate, cofactor (NAD+ or NADP+) not specified
[3] = substrate: CC(C)=CCC/C(C)=C/CO; assay: purified protein; assay type: biochemical, candidate division MSBL1 archaeon SCGC-AAA261F19; settings: standard oxidation conditions: 3 M KCl, 50 mM glycine/NaOH pH 10.0, 60 °C, 10 mM NAD(P)+, 0.4 mM zinc sulfate, cofactor (NAD+ or NADP+) not specified
[4] = substrate: OC/C=C/c1ccccc1; assay: purified protein; assay type: biochemical, candidate division MSBL1 archaeon SCGC-AAA261F19; settings: standard oxidation conditions: 3 M KCl, 50 mM glycine/NaOH pH 10.0, 60 °C, 10 mM NAD(P)+, 0.4 mM zinc sulfate, cofactor (NAD+ or NADP+) not specified

| stoichiometry N [1] | Molecule | Km [2] [µM] | Vmax [2] [µmol/min/mg] | kcat [2] [s⁻¹] | kcat/Km [2] [M⁻¹ s⁻¹] | Km [3] [µM] | Vmax [3] [µmol/min/mg] | kcat [3] [s⁻¹] | kcat/Km [3] [M⁻¹ s⁻¹] | Km [4] [µM] | Vmax [4] [µmol/min/mg] | kcat [4] [s⁻¹] | kcat/Km [4] [M⁻¹ s⁻¹] |
| --- | --- | --- | --- | --- | --- | --- | --- | --- | --- | --- | --- | --- | --- |
| 4 | Alcohol dehydrogenase/A1a (ADH/A1a) from an uncultured MSBL1 archaeon of the Atlantis II Deep Red Sea brine pool (enzyme) | – | – | – | – | – | – | – | – | – | – | – | – |
| – | ADH/A1a (candidate division MSBL1 archaeon SCGC-AAA261F19) (protein, N-terminal 20-residue nonsense region of annotated adh/a1 deleted; N-terminal His6-tag; codon-optimized, expressed in Haloferax volcanii H1895 (pTA963); zinc added) MKAMQLKEPKPVEQAPLEMVELKEPRPGPKEVKIDVQACGVCHTDLHTVEGELSLPKLPIVPGHEVVGVVEESGDEAEHFEVGDRVGVTWLYSSCGECKFCRRGQENLCEDPMFTGLHADGGYEESMVAKEDFVYPIPKNISDEDAAPLLCAGVIGYRSLRLSEVKPGQRLGLFGFGASAHIVIQLATDMGCEVYVFTRSEEHRRLARELGSAWEGSAKDDPPHRIDSGITFAPVGWIVKEALRDLEKGGTLAINAIHMTPIPELDYDLIYHEKKLRSVANVTREDAEGFLKIAGDIPVQTEVETFPLEEANRALRLLKDSKINGAGVLKVS | 94430 ± 8400 | 0.142 | 0.089 | 0.94 | 270 ± 40 | 0.131 | 0.082 ± 0.003 | 290 ± 18 | 470 ± 90 | 0.237 | 0.144 ± 0.009 | 310 ± 10 |

Source: PMC6356862, “A polyextremophilic alcohol dehydrogenase from the Atlantis II Deep Red Sea brine pool” (FEBS Open Bio, 2018)
